Laboratory results: patent US20030228663A1

Target: HER2 extracellular domain (HER2-ECD) (human) (UniProt P04626)
Experiment: SPR (BIAcore 2000 or 3000), Fab over immobilized HER2-ECD, 37 °C, KD = koff/kon

Work on “hu4D5-8 Fab M.7 (N30(VL)S+H91(VL)F+Y92(VL)W+T94(VL)S+D98(VH)W+Y100a(VH)F+Y102(VH)V)” yielded a Kd of 0.38 nM.
